Measurements reported in article PMC3936751.

Columns and labels:
[1] = tested on: T1, hCdc45-His6 (Homo sapiens); assay: SPR; settings: 3 mM EDTA, EMSA: 50 mM HEPES-KOH pH 7.5, 150 mM KCl, 0.5 mM DTT, 50 ug/ml BSA, 30 C 10 min, SPR: 20 mM HEPES-KOH pH 7.5, 150 mM KCl, 1 mM DTT, 0.005% P20 …; for Kd: Cdc45 immobilized by anti-His; for binding signal: scale: fold weaker than Y/bubble
T1 sequence: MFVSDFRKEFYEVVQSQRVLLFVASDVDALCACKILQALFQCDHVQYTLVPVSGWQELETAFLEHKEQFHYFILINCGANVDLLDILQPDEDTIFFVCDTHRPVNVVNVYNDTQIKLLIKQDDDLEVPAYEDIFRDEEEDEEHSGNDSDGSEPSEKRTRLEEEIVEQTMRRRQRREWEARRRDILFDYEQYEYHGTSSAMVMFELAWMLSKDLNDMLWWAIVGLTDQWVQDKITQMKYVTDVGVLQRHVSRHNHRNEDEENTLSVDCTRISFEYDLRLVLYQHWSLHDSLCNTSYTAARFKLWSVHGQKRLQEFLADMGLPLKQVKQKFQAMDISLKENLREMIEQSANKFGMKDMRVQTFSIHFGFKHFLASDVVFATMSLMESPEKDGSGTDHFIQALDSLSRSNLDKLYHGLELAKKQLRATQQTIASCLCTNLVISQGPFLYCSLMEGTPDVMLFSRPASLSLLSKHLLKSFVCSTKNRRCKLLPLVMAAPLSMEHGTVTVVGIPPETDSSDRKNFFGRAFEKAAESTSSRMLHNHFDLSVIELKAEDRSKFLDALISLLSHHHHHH

[2] = tested on: T1, hCdc45-His6 (Homo sapiens); assay: EMSA; settings: EMSA: 50 mM HEPES-KOH pH 7.5, 150 mM KCl, 0.5 mM DTT, 50 ug/ml BSA, 30 C 10 min, SPR: 20 mM HEPES-KOH pH 7.5, 150 mM KCl, 1 mM DTT, 3 mM EDTA, 0.005% P20 …

Substance: Y-shaped DNA M3S4 (17 bp, two 17-mer overhangs)
- Kd [1]: 7.7 nM

Substance: bubble M5M6 (22 bp, 20 nt bubble, 22 bp)
- Kd [1]: 8 nM

Substance: D-loop M5M6M2
- binding signal [1]: > 10

Substance: R-loop
- binding signal [1]: > 10

Substance: 113-mer ssDNA
- binding signal (% bound at 5 uM Cdc45) [2]: 85

Substance: 67-mer ssDNA
- binding signal (fold less efficient than 113-mer) ([2]; 2 nM DNA): 8.5
